Experimental data taken from publication PMC8604728.

Key:
[1] = biological target: wild-type cholecystokinin A receptor (CCKAR) (UniProt P32238)
[2] = biological target: CCKAR I296G (UniProt P32238)
[3] = biological target: wild-type cholecystokinin A receptor (CCKAR) (UniProt P32238); remark: listed apart in the source

## Gi heterotrimer of the BRET G-protein dissociation assay (from UniProt P63096 1-354; P62873 1-340; P59768 1-71) (complex)
[1]
  pEC50 of CCK-8 in the BRET G-protein dissociation assay (Gβγ-Venus to GRK3ct-luciferase), cells with CCKAR and Gi (Supplementary Table 3, Receptor + Gi): 7.32

## Gi heterotrimer of the NanoBiT G-protein recruitment assay (Gαi1, SmBiT-fused human Gβ1, human Gγ2) (from UniProt P63096 1-354; P62873 1-340; P59768 1-71) (complex)
[2]
  pEC50 of CCK-8, Gi-coupling activity by NanoBiT G-protein recruitment assay (CCKAR-LgBiT and SmBiT-Gβ1 in sf9 cells; Supplementary Table 4, I296G): 6.66
[3]
  pEC50 of CCK-8, Gi-coupling activity by NanoBiT G-protein recruitment assay (CCKAR-LgBiT and SmBiT-Gβ1 in sf9 cells; Supplementary Table 4, WT): 6.81

## Gq heterotrimer of the BRET G-protein dissociation assay (from UniProt P50148 1-359; P62873 1-340; P59768 1-71) (complex)
[1]
  pEC50 of CCK-8 in the BRET G-protein dissociation assay (Gβγ-Venus to GRK3ct-luciferase), cells with CCKAR and Gq (Supplementary Table 3, Receptor + Gq): 8.42
[2]
  pEC50 of CCK-8, Gq-coupling activity by BRET assay (Supplementary Table 4, I296G): 8.38
[3]
  pEC50 of CCK-8, Gq-coupling activity by BRET assay (Supplementary Table 4, WT): 9.14

## Gs heterotrimer of the NanoBiT G-protein dissociation assay (Gαs-LgBiT, Gβ, SmBiT-Gγ) (from UniProt P63092 1-394; P62873 1-340; P59768 1-71) (complex)
[2]
  pEC50 of CCK-8, Gs-coupling activity by NanoBiT G-protein dissociation assay (Gαs-LgBiT and SmBiT-Gγ in HEK 293T/17 cells; Supplementary Table 4, I296G): 10.5
[3]
  pEC50 of CCK-8, Gs-coupling activity by NanoBiT G-protein dissociation assay (Gαs-LgBiT and SmBiT-Gγ in HEK 293T/17 cells; Supplementary Table 4, WT): 10.5

## Gs heterotrimer of the BRET G-protein dissociation assay (from UniProt P63092 1-394; P62873 1-340; P59768 1-71) (complex)
[1]
  pEC50 of CCK-8 in the BRET G-protein dissociation assay (Gβγ-Venus to GRK3ct-luciferase), cells with CCKAR and Gs (Supplementary Table 3, Receptor + Gs): 7.92
